T1: recombinant human DKK1 (human, UniProt O94907 32-266)
T1 sequence: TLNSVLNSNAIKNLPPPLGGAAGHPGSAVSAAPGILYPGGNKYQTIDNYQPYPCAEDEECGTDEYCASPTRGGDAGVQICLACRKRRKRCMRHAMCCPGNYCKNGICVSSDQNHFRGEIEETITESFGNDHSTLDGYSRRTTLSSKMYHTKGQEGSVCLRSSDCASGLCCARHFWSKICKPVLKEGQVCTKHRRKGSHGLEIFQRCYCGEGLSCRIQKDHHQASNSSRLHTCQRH

T2: mouse DKK1 (R&D Systems) (mouse, UniProt O54908 32-272)
T2 construct: Bought protein
T2 sequence (looked up): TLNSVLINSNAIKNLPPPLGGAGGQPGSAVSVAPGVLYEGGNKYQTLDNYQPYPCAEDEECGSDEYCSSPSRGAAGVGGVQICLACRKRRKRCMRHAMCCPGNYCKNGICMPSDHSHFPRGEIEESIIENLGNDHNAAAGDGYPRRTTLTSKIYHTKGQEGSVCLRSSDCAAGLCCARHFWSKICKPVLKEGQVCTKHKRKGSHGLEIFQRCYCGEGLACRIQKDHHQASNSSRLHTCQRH

T3: cynomolgus DKK1 (cynomolgus monkey (Macaca fascicularis), UniProt A0A7N9IE82 32-266)
T3 construct: also called cyno DKK1; monkey DKK1 (Novartis)
T3 sequence: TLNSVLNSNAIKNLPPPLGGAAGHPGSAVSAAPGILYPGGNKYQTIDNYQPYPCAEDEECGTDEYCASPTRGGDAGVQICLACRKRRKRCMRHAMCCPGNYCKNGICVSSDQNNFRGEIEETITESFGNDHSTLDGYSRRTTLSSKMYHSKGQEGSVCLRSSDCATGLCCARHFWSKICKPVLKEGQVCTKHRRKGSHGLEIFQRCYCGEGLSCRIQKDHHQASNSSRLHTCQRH

T4: biotinylated human DKK1 (human, UniProt O94907 32-266, biotinylated (sites not given))
T4 construct: also called biotinylated DKK1; human recombinant, biotinylated DKK1
T4 sequence: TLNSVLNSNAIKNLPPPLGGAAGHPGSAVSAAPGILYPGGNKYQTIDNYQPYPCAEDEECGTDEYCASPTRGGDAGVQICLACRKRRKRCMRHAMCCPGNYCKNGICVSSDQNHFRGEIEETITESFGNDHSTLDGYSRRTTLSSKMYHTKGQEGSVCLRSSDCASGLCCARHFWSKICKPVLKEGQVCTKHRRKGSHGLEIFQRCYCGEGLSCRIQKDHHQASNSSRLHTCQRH

T5: DKK1-APP (human, UniProt O94907 32-266)
T5 sequence: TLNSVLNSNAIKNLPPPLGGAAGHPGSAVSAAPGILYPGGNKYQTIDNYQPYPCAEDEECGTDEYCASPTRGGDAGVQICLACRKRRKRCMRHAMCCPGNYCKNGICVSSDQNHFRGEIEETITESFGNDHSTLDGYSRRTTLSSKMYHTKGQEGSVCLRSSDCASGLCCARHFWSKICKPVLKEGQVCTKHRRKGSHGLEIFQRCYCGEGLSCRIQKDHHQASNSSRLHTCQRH


Assays:
recombinant human DKK1 [1] = target: T1, recombinant human DKK1; assay: cell-based or functional assay
mouse DKK1 (R&D Systems) [2] = target: T2, mouse DKK1 (R&D Systems); assay: solution equilibrium titration (SET), ECL (BioVeris), Fab
Protocol: (§1) Electrochemiluminescence (ECL) based affinity determination in solution and data evaluation are basically performed as described by Haenel et al., 2005. […] Subsequently, the concentration of unbound Fab is quantified by ECL detection using the M-SERIES® 384 analyzer (BioVeris Europe).
(§2) Affinities are calculated according to Haenel et al., 2005 Anal Biochem 339.1:182-184.

recombinant human DKK1 [3] = target: T1, recombinant human DKK1; assay: as above
Protocol: as §1, §2

cynomolgus DKK1 [4] = target: T3, cynomolgus DKK1; assay: as above
Protocol: as §1, §2

biotinylated human DKK1 = target: T4, biotinylated human DKK1; assay: ELISA, biotinylated DKK1 on Neutravidin plates, Fab 1 ug/ml, anti-FLAG-AP detection
Protocol: Binding specificity of the matured Fabs in the presence of 50% human serum (HS) is determined. […] After coating of the antigen, wells are blocked with TBS/0.05% Tween (TBS-T) supplemented with 1% BSA for 1 h at room temperature. Purified Fabs described above are diluted either in TBS/4% BSA or TBS/50% HS at a final concentration of 1 μg/ml, added to the coated and blocked wells and the plates are incubated for 1 h at room temperature. For detection, an anti-FLAG alkaline phosphatase (AP)-conjugated antibody (1:5000 dilution in TBST) and the fluorogenic substrate AttoPhos (Roche) are used. After each incubation, the wells of the microtiter plates are washed with TBST five times, except after the final incubation step with the labeled secondary antibody when wells are washed three times.
The fluorescence is measured in a TECAN Spectrafluor plate reader.

DKK1-APP [5] = target: T5, DKK1-APP; assay: cell-based or functional assay
mouse DKK1 (R&D Systems) [6] = target: T2, mouse DKK1 (R&D Systems); assay: SPR (Biacore), DKK1 immobilised on CM5 chip, Fab as analyte
Protocol: (§3) Using these clones, kinetic SPR analysis is performed on a. […] The Fab preparations are applied in concentration series of 16-500 nM at a flow rate of 20 μl/min. Association phase is set to 60 s and dissociation phase to 120 s.

recombinant human DKK1 [7] = target: T1, recombinant human DKK1; assay: as above
Protocol: as §3

cynomolgus DKK1 [8] = target: T3, cynomolgus DKK1; assay: as above
Protocol: as §3

DKK1-APP [9] = target: T5, DKK1-APP; assay: cell-based or functional assay; remark: listed apart in the source
DKK1-APP [10] = target: T5, DKK1-APP; assay: cell-based or functional assay; remark: listed apart in the source
mouse DKK1 (R&D Systems) [11] = target: T2, mouse DKK1 (R&D Systems); assay: SPR (Biacore), DKK1 immobilised on CM5 chip, Fab as analyte; remark: listed apart in the source
Protocol: as §3

recombinant human DKK1 [12] = target: T1, recombinant human DKK1; assay: as above; remark: listed apart in the source
Protocol: as §3

cynomolgus DKK1 [13] = target: T3, cynomolgus DKK1; assay: as above; remark: listed apart in the source
Protocol: as §3

mouse DKK1 (R&D Systems) [14] = target: T2, mouse DKK1 (R&D Systems); assay: as above; remark: listed apart in the source
Protocol: as §3

recombinant human DKK1 [15] = target: T1, recombinant human DKK1; assay: as above; remark: listed apart in the source
Protocol: as §3

cynomolgus DKK1 [16] = target: T3, cynomolgus DKK1; assay: as above; remark: listed apart in the source
Protocol: as §3

TCF/LEF luc assay w/Kremen: EC50 (recombinant human DKK1 [1]) | Kd (mouse DKK1 (R&D Systems) [2]) | Kd (recombinant human DKK1 [3]) | Kd (cynomolgus DKK1 [4]) | Binding activity w/50% Human serum vs 4% BSA (%) (biotinylated human DKK1) | Luciferase reporter assay w/o Kremen; Activity in 15% Human serum (%) (DKK1-APP [5]) | Kd (mouse DKK1 (R&D Systems) [6]) | Kd (recombinant human DKK1 [7]) | Kd (cynomolgus DKK1 [8]) | Luciferase reporter assay; EC50 (DKK1-APP [9]) | EC50 (DKK1-APP [10]) | Kd (mouse DKK1 (R&D Systems) [11]) | Kd (recombinant human DKK1 [12]) | Kd (cynomolgus DKK1 [13]) | Kd (mouse DKK1 (R&D Systems) [14]) | Kd (recombinant human DKK1 [15]) | Kd (cynomolgus DKK1 [16]) | Binder
1700 pM | 30 pM | 32 pM | 58 pM | – | – | – | – | – | – | – | – | – | – | – | – | – | MOR04947 (Fab, V domains shown) VH: QVQLVQSGAEVKKPGESLKISCKGSGYSFTNYYIGWVRQMPGKGLEWMGIIVPGTSYTIYSPSFQGQVTISADKSISTAYLQWSSLKASDTAMYYCARGIPFRMRGFDYWGQGTLVTVSS VL: DIVLTQPPSVSGAPGQRVTISCSGSSSNIGSSFVNWYQQLPGTAPKLLIGNNSNRPSGVPDRFSGSKSGTSASLAITGLQSEDEADYYCASFDMGSPNVVFGGGTKLTVLG
600 pM | 71 pM | 100 pM | 58 pM | 100% | 60% | – | – | – | – | – | – | – | – | – | – | – | MOR04952 (Fab, V domains shown) VH: QVQLVESGGGLVQPGGSLRLSCAASGFTFSSYWMSWVRQAPGKGLEWVSVISSDSSSTYYADSVKGRFTISRDNSKNTLYLQMNSLRAEDTAVYYCARHGIDFDHWGQGTLVTVSS VL: DIALTQPASVSGSPGQSITISCTGTSSDLGGYNYVSWYQQHPGKAPKLMIYDVNNRPSGVSNRFSGSKSGNTASLTISGLQAEDEADYYCQSYDSPTDSVVFGGGTKLTVLG
300 pM | 42 pM | 24 pM | 37 pM | 84% | 90% | – | – | – | – | – | – | – | – | – | – | – | MOR04910 (Fab, V domains shown, also called anti-DKK1 FAb MOR04910) VH: QVQLVESGGGLVQPGGSLRLSCAASGFTFSSYWMSWVRQAPGKGLEWVSGISYSGSNTHYADSVKGRFTISRDNSKNTLYLQMNSLRAEDTAVYYCARMGIDLDYWGQGTLVTVSS VL: DIALTQPASVSGSPGQSITISCTGTSSDVGGFNYVSWYQQHPGKAPKLMIHDGSNRPSGVSNRFSGSKSGNTASLTISGLQAEDEADYYCQSWDVSPITAVFGGGTKLTVLG
1800 pM | 40 pM | 53 pM | 50 pM | 90% | 75% | – | – | – | – | – | – | – | – | – | – | – | MOR04920 (Fab, V domains shown) VH: QVQLVESGGGLVQPGGSLRLSCAASGFTFSSYWMSWVRQAPGKGLEWVSSIEHKDAGYTTWYAAGVKGRFTISRDNSKNTLYLQMNSLRAEDTAVYYCARHGIDFDHWGQGTLVTVSS VL: DIALTQPASVSGSPGQSITISCTGTSSDLGGYNYVSWYQQHPGKAPKLMIYDVNNRPSGVSNRFSGSKSGNTASLTISGLQAEDEADYYCQSYASGNTKVVFGGGTKLTVLG
500 pM | 74 pM | 69 pM | 80 pM | 89% | 74% | – | – | – | – | – | – | – | – | – | – | – | MOR04945 (Fab, V domains shown) VH: QVQLVESGGGLVQPGGSLRLSCAASGFTFSSYWMSWVRQAPGKGLEWVSVISSDSSSTYYADSVKGRFTISRDNSKNTLYLQMNSLRAEDTAVYYCARHGIDFDHWGQGTLVTVSS VL: DIALTQPASVSGSPGQSITISCTGTSSDLGGYNYVSWYQQHPGKAPKLMIYDVNNRPSGVSNRFSGSKSGNTASLTISGLQAEDEADYYCQTYDQIKLSAVFGGGTKLTVLG
500 pM | 65 pM | 57 pM | 67 pM | 100% | 70% | – | – | – | – | – | – | – | – | – | – | – | MOR04948 (Fab, V domains shown) VH: QVQLVESGGGLVQPGGSLRLSCAASGFTFSSYWMSWVRQAPGKGLEWVSGISYSGSNTHYADSVKGRFTISRDNSKNTLYLQMNSLRAEDTAVYYCARMGIDLDYWGQGTLVTVSS VL: DIALTQPASVSGSPGQSITISCTGTSSDVGGFNYVSWYQQHPGKAPKLMIHDGSNRPSGVSNRFSGSKSGNTASLTISGLQAEDEADYYCQTWDSLSFFVFGGGTKLTVLG
– | – | – | – | – | – | 3600 pM | 3200 pM | 1700 pM | 58000 pM | 58000 pM | 3600 pM | 3200 pM | 1700 pM | 3600 pM | 3200 pM | 1700 pM | MOR04470 (Fab, V domains shown, Fab with C-terminal FLAG and 6xHis tags) VH: QVQLVESGGGLVQPGGSLRLSCAASGFTFSSYWMSWVRQAPGKGLEWVSVISSDSSSTYYADSVKGRFTISRDNSKNTLYLQMNSLRAEDTAVYYCARHGIDFDHWGQGTLVTVSS VL: DIALTQPASVSGSPGQSITISCTGTSSDLGGYNYVSWYQQHPGKAPKLMIYDVNNRPSGVSNRFSGSKSGNTASLTISGLQAEDEADYYCQSYASGNTKVVFGGGTKLTVLG
200 pM | 41 pM | 25 pM | 36 pM | 93% | 60% | – | – | – | – | – | – | – | – | – | – | – | MOR04946 (Fab, V domains shown) VH: QVQLVESGGGLVQPGGSLRLSCAASGFTFNNYGMTWVRQAPGKGLEWVSGISGSGSYTYYADSVKGRFTISRDNSKNTLYLQMNSLRAEDTAVYYCARTIYMDYWGQGTLVTVSS VL: DIVLTQSPATLSLSPGERATLSCRASQNLFSPYLAWYQQKPGQAPRLLIYGASNRATGVPARFSGSGSGTDFTLTISSLEPEDFAVYYCQQYLTLPLTFGQGTKVEIKR
500 pM | 44 pM | 38 pM | 51 pM | 89% | 88% | – | – | – | – | – | – | – | – | – | – | – | MOR04913 (Fab, V domains shown) VH: QVQLVESGGGLVQPGGSLRLSCAASGFTFNNYGMTWVRQAPGKGLEWVSGISGSGSYTYYADSVKGRFTISRDNSKNTLYLQMNSLRAEDTAVYYCARTIYMDYWGQGTLVTVSS VL: DIVLTQSPATLSLSPGERATLSCRASQNLFSPYLAWYQQKPGQAPRLLIYGASNRATGVPARFSGSGSGTDFTLTISSLEPEDFAVYYCQQYMTLPLTFGQGTKVEINR

Source: patent US20120023600A1 (Novartis, published 2012)
